Measurements from the supplement of paper PMC5998384.

How the values were obtained:
HeLa Kyoto [1] = assay: solubility in G1/S (NP-40 vs SDS abundance) (log2 ratio); higher = more soluble; conditions: cell cycle stage: G1/S
HeLa Kyoto [2] = assay: melting temperature (median over replicates), in situ; higher = more thermally stable
HeLa Kyoto [3] = assay: solubility change mitosis vs G1/S (difference of NP-40 vs SDS log2 ratios) (log2 ratio difference); higher = more soluble in mitosis
HeLa Kyoto [4] = assay: thermal stability score vs G1/S (z-score of summed log2 fold changes over temperatures); higher = more thermally stable than in G1/S
[5] = cell cycle stage: early G1 (4.5 h after nocodazole release)
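Wherever melting temperature (median over replicates), in situ is given: HeLa Kyoto cells synchronized by double thymidine or nocodazole block, proteins quantified by TMT10plex mass spectrometry, three independent biological replicates.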
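Wherever solubility change mitosis vs G1/S (difference of NP-40 vs SDS log2 ratios) is given: synchronized HeLa Kyoto cells (double thymidine block for G1/S, nocodazole release for mitosis), protein amounts in NP-40 versus SDS lysates quantified by mass spectrometry, three biological replicates.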
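Wherever solubility in G1/S (NP-40 vs SDS abundance) is given: HeLa Kyoto cells arrested at G1/S by double thymidine block, proteins quantified by TMT10plex mass spectrometry in mild NP-40 versus SDS extracts, three biological replicates.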
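Wherever thermal stability score vs G1/S (z-score of summed log2 fold changes over temperatures) is given: synchronized HeLa Kyoto cells, proteins quantified by TMT10plex mass spectrometry, three biological replicates, mitosis taken 0.5 h after nocodazole release, G1/S directly after double thymidine block.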

| Sequence | solubility in G1/S (log2) (HeLa Kyoto [1]) | melting temperature (HeLa Kyoto [2]; cell cycle stage: G1/S) | melting temperature (HeLa Kyoto [2]; cell cycle stage: mitosis) | solubility change mitosis (log2) (HeLa Kyoto [3]) | thermal stability score (HeLa Kyoto [4]; [5]) | thermal stability score (HeLa Kyoto [4]; cell cycle stage: mitosis) |
| --- | --- | --- | --- | --- | --- | --- |
| MSGLSGPPARRGPFPLALLLLFLLGPRLVLAISFHLPINSRKCLREEIHKDLLVTGAYEISDQSGGAGGLRSHLKITDSAGHILYSKEDATKGKFAFTTEDYDMFEVCFESKGTGRIPDQLVILDMKHGVEAKNYEEIAKVEKLKPLEVELRRLEDLSESIVNDFAYMKKREEEMRDTNESTNTRVLYFSIFSMFCLIGLATWQVFYLRRFFKAKKLIE [TMED10] | 0.076 | 55.3 °C | 55.8 °C | -0.0383 | 0.651 | -0.174 |
| MSGPRPVVLSGPSGAGKSTLLKRLLQEHSGIFGFSVSHTTRNPRPGEENGKDYYFVTREVMQRDIAAGDFIEHAEFSGNLYGTSKVAVQAVQAMNRICVLDVDLQGVRNIKATDLRPIYISVQPPSLHVLEQRLRQRNTETEESLVKRLAAAQADMESSKEPGLFDVVIINDSLDQAYAELKEALSEEIKKAQRTGA [GUK1] | 0.604 | 48.9 °C | 50.2 °C | 0.047 | -0.1 | -0.804 |
| MSGQPPPPPPQQQQQQQQLSPPPPAALAPVSGVVLPAPPAVSAGSSPAGSPGGGAGGEGLGAAAAALLLHPPPPPPPATAAPPPPPPPPPPPASAAAPASGPPAPPGLAAGPGPAGGAPTPALVAGSSAAAPFPHGDSALNEQEKELQRRLKRLYPAVDEQETPLPRSWSPKDKFSYIGLSQNNLRVHYKGHGKTPKDAASVRATHPIPAACGIYYFEVKIVSKGRDGYMGIGLSAQGVNMNRLPGWDKHSYGYHGDDGHSFCSSGTGQPYGPTFTTGDVIGCCVNLINNTCFYTKNGHSLGIAFTDLPPNLYPTVGLQTPGEVVDANFGQHPFVFDIEDYMREWRTKIQAQIDRFPIGDREGEWQTMIQKMVSSYLVHHGYCATAEAFARSTDQTVLEELASIKNRQRIQKLVLAGRMGEAIETTQQLYPSLLERNPNLLFTLKVRQFIEMVNGTDSEVRCLGGRSPKSQDSYPVSPRPFSSPSMSPSHGMNIHNLASGKGSTAHFSGFESCSNGVISNKAHQSYCHSNKHQSSNLNVPELNSINMSRSQQVNNFTSNDVDMETDHYSNGVGETSSNGFLNGSSKHDHEMEDCDTEMEVDSSQLRRQLCGGSQAAIERMIHFGRELQAMSEQLRRDCGKNTANKKMLKDAFSLLAYSDPWNSPVGNQLDPIQREPVCSALNSAILETHNLPKQPPLALAMGQATQCLGLMARSGIGSCAFATVEDYLH [RANBP9] | 0.115 | 51.6 °C | 51.1 °C | -0.126 | -0.277 | -0.378 |
| MSGQSLTDRITAAQHSVTGSAVSKTVCKATTHEIMGPKKKHLDYLIQCTNEMNVNIPQLADSLFERTTNSSWVVVFKSLITTHHLMVYGNERFIQYLASRNTLFNLSNFLDKSGLQGYDMSTFIRRYSRYLNEKAVSYRQVAFDFTKVKRGADGVMRTMNTEKLLKTVPIIQNQMDALLDFNVNSNELTNGVINAAFMLLFKDAIRLFAAYNEGIINLLEKYFDMKKNQCKEGLDIYKKFLTRMTRISEFLKVAEQVGIDRGDIPDLSQAPSSLLDALEQHLASLEGKKIKDSTAASRATTLSNAVSSLASTGLSLTKVDEREKQAALEEEQARLKALKEQRLKELAKKPHTSLTTAASPVSTSAGGIMTAPAIDIFSTPSSSNSTSKLPNDLLDLQQPTFHPSVHPMSTASQVASTWGDPFSATVDAVDDAIPSLNPFLTKSSGDVHLSISSDVSTFTTRTPTHEMFVGFTPSPVAQPHPSAGLNVDFESVFGNKSTNVIVDSGGFDELGGLLKPTVASQNQNLPVAKLPPSKLVSDDLDSSLANLVGNLGIGNGTTKNDVNWSQPGEKKLTGGSNWQPKVAPTTAWNAATMAPPVMAYPATTPTGMIGYGIPPQMGSVPVMTQPTLIYSQPVMRPPNPFGPVSGAQIQFM [PICALM] | 0.0523 | 53.7 °C | 53.1 °C | -0.0327 | -1.28 | -1.63 |
| MSGRSKRESRGSTRGKRESESRGSSGRVKRERDREREPEAASSRGSPVRVKREFEPASAREAPASVVPFVRVKREREVDEDSEPEREVRAKNGRVDSEDRRSRHCPYLDTINRSVLDFDFEKLCSISLSHINAYACLVCGKYFQGRGLKSHAYIHSVQFSHHVFLNLHTLKFYCLPDNYEIIDSSLEDITYVLKPTFTKQQIANLDKQAKLSRAYDGTTYLPGIVGLNNIKANDYANAVLQALSNVPPLRNYFLEEDNYKNIKRPPGDIMFLLVQRFGELMRKLWNPRNFKAHVSPHEMLQAVVLCSKKTFQITKQGDGVDFLSWFLNALHSALGGTKKKKKTIVTDVFQGSMRIFTKKLPHPDLPAEEKEQLLHNDEYQETMVESTFMYLTLDLPTAPLYKDEKEQLIIPQVPLFNILAKFNGITEKEYKTYKENFLKRFQLTKLPPYLIFCIKRFTKNNFFVEKNPTIVNFPITNVDLREYLSEEVQAVHKNTTYDLIANIVHDGKPSEGSYRIHVLHHGTGKWYELQDLQVTDILPQMITLSEAYIQIWKRRDNDETNQQGA [USP39] | -0.4 | 51.4 °C | 51.9 °C | 0.178 | -0.187 | -0.193 |
| MSGSFELSVQDLNDLLSDGSGCYSLPSQPCNEVTPRIYVGNASVAQDIPKLQKLGITHVLNAAEGRSFMHVNTNANFYKDSGITYLGIKANDTQEFNLSAYFERAADFIDQALAQKNGRVLVHCREGYSRSPTLVIAYLMMRQKMDVKSALSIVRQNREIGPNDGFLAQLCQLNDRLAKEGKLKP [DUSP3] | 0.676 | 50.4 °C | 51 °C | 0.131 | 0.0996 | -0.0543 |
